Experiments:
S. aureus RN6390B [1] = type: cell-based
AIP-2 = test: Competition ELISA (free native AIP against hapten-BSA coated plates); type: binding, S. aureus; settings: AP1 Sups; AP1-BSA coated plates; read-out: AIP2 wt
S. aureus USA300 = test: Postexposure therapy of lethal systemic MRSA USA300 challenge; type: in vivo, C57BL/6 mice; settings: 1 mg i.p. 2 hours after infection with at least 1×10^8 S. aureus USA300; n=6; FIG. 12
Protocol: Mice were treated with AP1-15B4 (1 mg) or control IgG (1 mg) 2 hours after S. aureus injection (1-3×10^8 i.p.). The numbers in parenthesis show survivors per group, p=0.02; n=6 for each group.
C57BL/6 mice received 1 mg of AP1-15B4 (i.p.), isotype control IgG or PBS 2 hours after they had been infected with at least 1×10^8 S. aureus USA300, an agr I MRSA strain. See Diep et al., Lancet 2006, 367, (9512), 731-739. USA300 is in fact one of the most common community-acquired MRSA (CA-MRSA) strains and represents an increasing threat for civilians and military personnel. Hageman et al., Diagn Microbiol Infect Dis 2008; James et al., Arch Dis Child Fetal Neonatal Ed 2008, 93, (1), F40-4; Tenover et al., J Clin Microbiol 2006, 44, (1), 108-18; Beilman et al., Surg Infect (Larchmt) 2005, 6, (1), 87-92. […] In contrast, only two of the PBS treated control mice (2/6) and 2 of the control IgG treated mice (2/6) survived longer than 24 hours.

AIP-4 = test: Competition ELISA (free native AIP against hapten-BSA coated plates); type: binding, S. aureus; settings: AP1 Sups; AP1-BSA coated plates; read-out: AIP4 wt
Protocol: (§1) The optimal concentrations of the AP4-BSA conjugate as well as of each mAb were determined. 96 well ELISA plates were coated with the appropriate amount of AP4-BSA conjugate respectively. The plates were blocked with 4% skim milk, washed and mAbs were added at the predetermined optimal concentration. The plates were washed and free antigen, i.e. the native AIPs 1-4, was added to the wells in a concentration series starting at 100 μM. The plate was incubated for 1 hour at 37° C., thoroughly washed, and goat anti-mouse-horseradish peroxidase (HRP) conjugate (Pierce, Rockford, Ill.) was added. After an incubation period of 1 hour at RT, the plate was thoroughly washed again and the HRP substrate (TMB substrate kit; Pierce) was added, the reaction was allowed to develop for 15 minute and stopped by the addition of 2 M H2SO4. The absorbance at 450 nm was read and the values plotted using GraFit (Erithacus Software Ltd). The free antigen concentration at which the absorbance value is 50% of the maximum absorbance was considered the Kd of the antibody for its antigen.
as §1, with “For the competition ELISA analysis, the optimal concentrations” for “The optimal concentrations”, “of the AP1-BSA, AP3-BSA, or AP4-BSA conjugate,” for “of the AP4-BSA conjugate”, “or AP4-BSA conjugate, as well” for “the AP4-BSA conjugate as well”, “amount of AP1-BSA, AP3-BSA, or AP4-BSA conjugate” for “amount of AP4-BSA conjugate”, “blocked with 4 v % skim milk,” for “blocked with 4% skim milk,”, “for 15 minutes and stopped” for “for 15 minute and stopped”

AIP-1 = test: as above; type: binding, S. aureus; settings: AP1 Sups; AP1-BSA coated plates; read-out: AIP1 wt
S. aureus RN6390B [2] = test: Static biofilm analysis (crystal violet); type: cell-based; settings: FIG. 10B

B1: AP1-15B4: murine anti-AIP1 monoclonal antibody; VH SEQ ID NO: 19, VL SEQ ID NO: 147 (antibody, V domains shown)
VH: EVHLVESGGDLVKPGGSLKLSCAASGFAFSDFAMSWVRQTPEKRLEWVAIIKSDDSYTYYPDSVRDRFTISRDNARNTLYLQMTSLRSEDTALYYCTKIYDAYFYAMDYWGQGTSVTVSS
VL: DIVRTQSPLSLSVSLGDQASISCRSSQSLLHSNGNTYLHWYLQKPGQSPKLLIYKVSNRFSGVPDRFSGSGSGTDFTLKISILEAEDLGIYFCSQSTHFPTFGGGTKLEIK
modifications: Murine
B1 was tested. Which “quorum sensing inhibition of group I strains (α-hemolysin expression)” value (S. aureus RN6390B [1]) did it give?
Its value is “efficiently inhibit quorum sensing”.

And the “quorum sensing inhibition, hemolysin expression” value (S. aureus RN6390B [1])?
Its value is “most potent activity”.

And the Kd (AIP-2)?
Its Kd is greater than 100 µM.

What about the “mice surviving through the 48-hour observation period” value (S. aureus USA300) of the same molecule?
The value was 4 out of 6.

What about the Kd (AIP-4) of the same molecule?
The Kd was greater than 100 µM.

What about the Kd (AIP-1) of the same molecule?
Its Kd is roughly 0.8 µM.

And the static biofilm formation (S. aureus RN6390B [2])?
Its static biofilm formation is “increase in biofilm formation”.

Source: patent US9394371B2, “Antibody-mediated disruption of quorum sensing in bacteria” (The Scripps Research Institute, priority 2007, dated 2016)
